The numbers were not newly measured in paper PMC8967867, which cites them from elsewhere.

The target of this data set is NCOA3 CID (Homo sapiens) (UniProt Q9Y6Q9).
NCOA3 CID (Homo sapiens), sequence (Q9Y6Q9 1023-1093): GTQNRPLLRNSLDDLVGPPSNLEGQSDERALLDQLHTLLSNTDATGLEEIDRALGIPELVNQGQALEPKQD

CBP NCBD, sequence (Q92793 2058-2116): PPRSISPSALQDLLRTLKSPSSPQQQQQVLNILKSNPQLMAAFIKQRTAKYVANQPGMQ

Turning to CBP NCBD (from UniProt Q92793), the Kd is 0.2 µM.

As a reminder, the Kd is the equilibrium constant for the complex coming apart.
